Nine molecules from PMC5095173, “Disulfide-activated protein kinase G Iα regulates cardiac diastolic relaxation and fine-tunes the Frank–Starling response” (Nature Communications, 2016) can be followed below.

B1: Arhgap35 pS1150 (protein, UniProt Q91YM2 1-1499, looked up)
Rho GTPase-activating protein …: MMMARKQDVRIPTYNISVVGLSGTEKEKGQCGIGKSCLCNRFVRPSADEFHLDHTSVLSTSDFGGRVVNNDHFLYWGEVSRSLEDCVECKMHIVEQTEFIDDQTFQPHRSTALQPYIKRAAATKLASAEKLMYFCTDQLGLEQDFEQKQMPDGKLLVDGFLLGIDVSRGMNRNFDDQLKFVSNLYNQLAKTKKPIVVVLTKCDEGVERYIRDAHTFALSKKNLQVVETSARSNVNVDLAFSTLVQLIDKSRGKTKIIPYFEALKQQSQQIATAKDKYEWLVSRIVKNHNENWPSVSRKMQASPEYQDYVYLEGTQKAKKLFLQHIHRLKHEHIERRRKLYLAALPLAFEALIPNLDEVDHLSCIKAKKLLETKPEFLKWFVVLEETPWDATSHIDNMENERIPFDLMDTVPAEQLYETHLEKLRNERKRAEMRRAFKENLETSPFITPGKPWEEARSFIMNEDFYQWLEESVYMDIYGKHQKQIIDRAKEEFQELLLEYSELFYELELDAKPSKEKMGVIQDVLGEEQRFKALQKLQAERDALILKHIHFVYHPTKETCPSCPACVDAKIEHLISSRFIRPSDRNQKNSLSDLNIDRINLVILGKDGLARELANEIRALCTNDDKYVIDGKMYELSLRPIEGNVRLPVNSFQTPTFQPHGCLCLYNSKESLSYVVESIEKSRESTLGRRDNHLVHLPLTLILVNKRGDTSGETLHSLIQQGQQIASKLQCVFLDPASAGIGYGRNINEKQISQVLKGLLDSKRNLNLVSSTASIKDLADVDLRIVMCLMCGDPFSADDVLSPVLQSQTCKSSHCGSSNSVLLELPIGLHKKRIELSVLSYHSSFSIRKSRLVHGYIVFYSAKRKASLAMLRAFLCEVQDIIPIQLVALTDGAIDVLDNDLSREQLTEGEEIAQEIDGRFTSIPCSQPQHKLELFHPFFKDVVEKKNIIEATHMYDNVAEACSTTEEVFNSPRAGSPLCNSNLQDSEEDVEPPSYHLFREDATLPSLSKDHSKFSMELEGNDGLSFIMSNFESKLNNKVPPPVKPKPPVHFDITKDLSYLDQGHREGQRKSMSSSPWMPQDGFDPSDYAEPMDAVVKPRNEEENIYSVPHDSTQGKIITIRNINKAQSNGSGNGSDSEMDTSSLERGRKVSAVSKPVLYRTRCTRLGRFASYRTSFSVGSDDELGPIRKKEEDQASQGYKGDNAVIPYETDEDPRRRNILRSLRRNTKKPKPKPRPSITKATWESNYFGVPLTTVVTPEKPIPIFIERCIEYIEATGLSTEGIYRVSGNKSEMESLQRQFDQDHNLDLAEKDFTVNTVAGAMKSFFSELPDPLVPYSMQIDLVEAHKINDREQKLHALKEVLKKFPKENHEVFKYVISHLNKVSHNNKVNLMTSENLSICFWPTLMRPDFSSMDALTATRSYQTIIELFIQQCPFFFYNRPISEPPGAAPGSPSAMAPTVPFLTSTPATSQPSPPQSPPPTPQSPMQPLLSSQLQAEHTL
modifications: phosphorylated S1150
B2: Ppp1r12a pT697 (protein, UniProt Q10728 1-1032, looked up)
Protein phosphatase 1 …: MKMADAKQKRNEQLKRWIGSETDLEPPVVKRQKTKVKFDDGAVFLAACSSGDTDEVLKLLHRGADINYANVDGLTALHQACIDDNVDMVKFLVENGANINQPDNEGWIPLHAAASCGYLDIAEFLIGQGAHVGAVNSEGDTPLDIAEEEAMEELLQNEVNRQGVDIEAARKEEERIMLRDARQWLNSGHISDVRHAKSGGTALHVAAAKGYTEVLKLLIQAGYDVNIKDYDGWTPLHAAAHWGKEEACRILVDNLCDMETVNKVGQTAFDVADEDILGYLEELQKKQNLLHSEKRDKKSPLIESTANMENNQPQKTFKNKETLIIEPEKNASRIESLEQEKADEEEEGKKDESSCSSEEDEEDDSESEAETDKTKPMASVTNAHTASTQAAPAAVTTPTLSSNQGTPTSPVKKFPTSTTKISPKEEERKDESPASWRLGLRKTGSYGALAEITASKEAQKEKDTAGVIRSASSPRLSSSLDNKEKEKDNKGTRLAYVAPTIPRRLGSTSDIEEKENRESSNLRTSSSYTRRKWEDDLKKNSSINEGSTYHRSCSFGRRQDDLISCSVPSTTSTPTVTSAAGLQKSFLSSTSTTAKTPPGSSPAGTQSSTSNRLWAEDSTEKEKDSAPTAATILVAPTVVSAAASSTTALTTTTAGTLSSTSEVRERRRSYLTPVRDEESESQRKARSRQARQSRRSTQGVTLTDLQEAEKTIGRSRSTRTREQENEEKDKEEKEKQDKEKQEEKKESEVSREDEYKQKYSRTYDETYARYRPVSTSSSSTPSSSSLSTLGSSLYASSQLNRPNSLVGITSAYSRGLTKDNEREGEKKEEEKEGEDKSQPKSIRERRRPREKRRSTGVSFWTQDSDENEQERQSDTEDGSSKRDTQTDSVSRYDSSSTSSSDRYDSLLGRSASYSYLEERKPYGSRLEKDDSTDFKKLYEQILAENEKLKAQLHDTNMELTDLKLQLEKATQRQERFADRSLLEMEKRERRALERRISEMEEELKMLPDLKADNQRLKDENGALIRVISKLSK
modifications: phosphorylated at T697
B3: Ndrg2 pS332 (protein, UniProt Q8VBU2 2-371, looked up)
Protein NDRG2: AELQEVQITEEKPLLPGQTPEAAKEAELAARILLDQGQTHSVETPYGSVTFTVYGTPKPKRPAIFTYHDVGLNYKSCFQPLFQFGDMQEIIQNFVRVHVDAPGMEEGAPVFPLGYQYPSQDQLADMIPCILQYLNFSTIIGVGVGAGAYILSRYALNHPDTVEGLVLINIDPNAKGWMDWAAHKLTGLTSSIPEMILGHLFSQEELSGNSELIQKYRSLITHAPNLENIELYWNSYNNRRDLNFERGGEMTLKCPVMLVVGDQAPHEDAVVECNSKLDPTQTSFLKMADSGGQPQLTQPGKLTEAFKYFVQGMGYMASSCMTRLSRSRTASLTSAASIDGSRSRSRTLSQSSESGTLPSGPPGHTMEVSC
modifications: phosphorylated at S332
B4: Serbp1 pS391 (protein, UniProt Q9CY58 1-407, looked up)
SERPINE1 mRNA-binding protein …: MPGHLQEGFGCVVTNRFDQLFDDESDPFEVLKAAENKKKEAGGGGVGGPGAKSAAQAAAQTNSNAAGKQLRKESQKDRKNPLPPSVGVADKKEETQPPVALKKEGIRRVGRRPDQQLQGDGKLIDRRAERRPPRERRFEKPLEEKGEGGEFSVDRPIIERPIRGRGGLGRGRGGRGRGMGRGDGFDSRGKREFDRHSGSDRSSFSHYSGLKHEDKRGGSGSHNWGTVKDELTESPKYIQKQISYNCSDLDQSNVTEETPEGEEHPVADTENKENEVEEVKEEGPKEMTLDEWKAIQNKDRAKVEFNIRKPNEGADGQWKKGFVLHKSKSEEAHAEDSVMDHHFRKPANDITSQLEINFGDLGRPGRGGRGGRGGRGRGGRPNRGSRTDKSSASAPDVDDPEAFPALA
modifications: phosphorylated S391
B5: Ptrf pT304 (protein, UniProt P85125 1-392, looked up)
Caveolae-associated protein 1: MEDVTLHIVERPYSGYPDASSEGPEPTPGEARATEEPSGTGSDELIKSDQVNGVLVLSLLDKIIGAVDQIQLTQAQLEERQAEMEGAVQSIQGELSKLGKAHATTSNTVSKLLEKVRKVSVNVKTVRGSLERQAGQIKKLEVNEAELLRRRNFKVMIYQDEVKLPAKLSVSKSLKESEALPEKEGDELGEGERPEEDAAAIELSSDEAVEVEEVIEESRAERIKRSGLRRVDDFKKAFSKEKMEKTKVRTRENLEKTRLKTKENLEKTRHTLEKRMNKLGTRLVPVERREKLKTSRDKLRKSFTPDHVVYARSKTAVYKVPPFTFHVKKIREGEVEVLKATEMVEVGPDDDEVGAERGAETDLLRGSSPDVHTLLEITEESDAVLVDKSDSD
modifications: phosphorylated at T304
B6: Ptrf pS302 (protein, UniProt P85125 1-392, looked up)
Caveolae-associated protein 1: B5 Caveolae-associated protein 1
modifications: phosphorylated at S302
B7: Ptrf pS171 (protein, UniProt P85125 1-392, looked up)
Caveolae-associated protein 1: B5 Caveolae-associated protein 1
modifications: phosphorylated at S171
B8: Ptrf pS169 (protein, UniProt P85125 1-392, looked up)
Caveolae-associated protein 1: B5 Caveolae-associated protein 1
modifications: phosphorylated at S169
B9: Ppp1r2 pT21 (protein, UniProt P50411 2-205, looked up)
Protein phosphatase inhibitor …: AASTASHRPIKGILKNKTSTTSSVVASAEQPRRTVEEELSKKSQKWDEMNILATYHPADKDYGLMKIDEPDTPYHNMIGDDEDVCSDSEGNEVMTPEILAKKLAAAEGSEPKFRTREQESSGEEDNDLSPEEREKKRQFEMKRKLHYNEGLNIKLARQLISKDLHDDDEDEEMSETADADSMNIEESNQGSTAGDHLQHKSQSS
modifications: phosphorylated at T21

For the first test, the system named is PKGIα (analogue-sensitive C42S/M438G), cGMP-activated. As to the kind of experiment: Chemical genetic phosphoproteomic screen, cGMP-activated PKGIα C42S/M438G versus unactivated control. The format is biochemical, human PKGIα; substrates in rat heart homogenate. The settings on record: Group 1 (cGMP-activated) vs Group 3 (control). Summed up:
(§1)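 Substrates in rat left-ventricle homogenate (20 mg ml) are labelled by engineered Met438Gly PKGIα given a bulky N6-alkylated ATPγS analogue, either as disulfide-activated M438G (oxidized, DTT-free) or as cGMP-activated C42S/M438G. Covalent capture and LC–MS/MS identify sites relative to unactivated kinase.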
In the case of B1, the log2 fold changes turned out to be 0.1001.

Staying with this test, now noted: control = PKGIα C42S/M438G.
For the molecule B2, the “log2 fold change cGMP vs Control” value is recorded as 0.8734.

As to B3, the “log2 fold change cGMP vs Control” value was 3.419.

As for B4, the “log2 fold change cGMP vs Control” value was found to be 6.458.

As to B5, the “log2 fold change cGMP vs Control” value stood at 3.045.

As to B6, the “log2 fold change cGMP vs Control” value worked out at 3.161.

Turning to B7, the “log2 fold change cGMP vs Control” value is on record as 3.564.

On to B8, for which the “log2 fold change cGMP vs Control” value was determined as 4.006.

Regarding B9, the “log2 fold change cGMP vs Control” value is on record as 5.158.

For a further test, the system named is PKGIα (analogue-sensitive M438G), disulfide-activated. The experiment in a line: Chemical genetic phosphoproteomic screen, disulfide-activated PKGIα M438G versus unactivated control. The format is biochemical, human PKGIα; substrates in rat heart homogenate. The settings on record: Group 2 (disulfide-activated) vs Group 3 (control). Summed up:
as §1
As to B1, the log2 fold changes was 0.2658.

The test is the same for the next values; noted with them: control = PKGIα C42S/M438G.
As for B2, the “log2 fold change Disulfide vs Control” value is on record as 0.1684.

In the case of B3, the “log2 fold change Disulfide vs Control” value came out at 1.914.

Consider B4, for which the “log2 fold change Disulfide vs Control” value came to 3.516.

With B5, the “log2 fold change Disulfide vs Control” value was determined as 1.3031.

Turning to B6, the “log2 fold change Disulfide vs Control” value was found to be 1.32.

For the molecule B7, the “log2 fold change Disulfide vs Control” value is reported as -0.2713.

B8: the “log2 fold change Disulfide vs Control” value was determined as 2.165.

As for B9, the “log2 fold change Disulfide vs Control” value amounted to 1.627.
